Laboratory results published in patent US12186374B2 (Sanofi-Aventis Deutschland GmbH, priority 2014, dated 2025).

Tested on: patients with Type 2 diabetes mellitus (T2DM)
Assay: Treatment-emergent adverse events incl. serious, fatal, leading to discontinuation (Example 2)
Conditions: Safety population
[1] = SOC, PT ≥ 3% in any treatment group

Gly(A21)-Arg(B31)-Arg(B32)-human insulin [Insulin Glargine]
TEAE leading to death: Cardiac failure congestive (PT): 0 n (%)
TEAE leading to death: Death (PT): 0 n (%)
TEAE leading to death: Lung cancer metastatic (PT): 0 n (%)
TEAE leading to death: Squamous cell carcinoma of the oral cavity (PT): 1 (0.2%) n (%)
TEAE leading to permanent treatment discontinuation: Abdominal distension (PT): 0 n (%)
TEAE leading to permanent treatment discontinuation: Abdominal pain (PT): 0 n (%)
TEAE leading to permanent treatment discontinuation: Acute myocardial infarction (PT): 1 (0.2%) n (%)
TEAE leading to permanent treatment discontinuation: Acute pulmonary oedema (PT): 1 (0.2%) n (%)
TEAE leading to permanent treatment discontinuation: Alanine aminotransferase increased (PT): 0 n (%)
TEAE leading to permanent treatment discontinuation: Anaphylactic reaction (PT): 0 n (%)
TEAE leading to permanent treatment discontinuation: Atrial fibrillation (PT): 0 n (%)
TEAE leading to permanent treatment discontinuation: Back pain (PT): 0 n (%)
TEAE leading to permanent treatment discontinuation: Bacteraemia (PT): 0 n (%)
TEAE leading to permanent treatment discontinuation: Blood creatinine increased (PT): 0 n (%)
TEAE leading to permanent treatment discontinuation: Bronchitis (PT): 1 (0.2%) n (%)
TEAE leading to permanent treatment discontinuation: Cardiac failure acute (PT): 1 (0.2%) n (%)
TEAE leading to permanent treatment discontinuation: Cardiac failure congestive (PT): 0 n (%)
TEAE leading to permanent treatment discontinuation: Colitis (PT): 0 n (%)
TEAE leading to permanent treatment discontinuation: Comminuted fracture (PT): 1 (0.2%) n (%)
TEAE leading to permanent treatment discontinuation: Cough (PT): 1 (0.2%) n (%)
TEAE leading to permanent treatment discontinuation: Death (PT): 0 n (%)
TEAE leading to permanent treatment discontinuation: Decreased appetite (PT): 0 n (%)
TEAE leading to permanent treatment discontinuation: Depression (PT): 1 (0.2%) n (%)
TEAE leading to permanent treatment discontinuation: Diabetic mononeuropathy (PT): 0 n (%)
TEAE leading to permanent treatment discontinuation: Diarrhoea (PT): 0 n (%)
TEAE leading to permanent treatment discontinuation: Drug hypersensitivity (PT): 1 (0.2%) n (%)
TEAE leading to permanent treatment discontinuation: Dyspepsia (PT): 1 (0.2%) n (%)
TEAE leading to permanent treatment discontinuation: Extradural abscess (PT): 0 n (%)
TEAE leading to permanent treatment discontinuation: Fatigue (PT): 1 (0.2%) n (%)
TEAE leading to permanent treatment discontinuation: Gastritis erosive (PT): 0 n (%)
TEAE leading to permanent treatment discontinuation: Headache (PT): 1 (0.2%) n (%)
TEAE leading to permanent treatment discontinuation: Injection site erythema (PT): 0 n (%)
TEAE leading to permanent treatment discontinuation: Insomnia (PT): 0 n (%)
TEAE leading to permanent treatment discontinuation: Lipase increased (PT): 1 (0.2%) n (%)
TEAE leading to permanent treatment discontinuation: Lung cancer metastatic (PT): 0 n (%)
TEAE leading to permanent treatment discontinuation: Lung neoplasm malignant (PT): 0 n (%)
TEAE leading to permanent treatment discontinuation: Meningitis staphylococcal (PT): 0 n (%)
TEAE leading to permanent treatment discontinuation: Myocardial infarction (PT): 1 (0.2%) n (%)
TEAE leading to permanent treatment discontinuation: Nausea (PT): 0 n (%)
TEAE leading to permanent treatment discontinuation: Pancreatic carcinoma (PT): 1 (0.2%) n (%)
TEAE leading to permanent treatment discontinuation: Rash (PT): 1 (0.2%) n (%)
TEAE leading to permanent treatment discontinuation: Skin burning sensation (PT): 0 n (%)
TEAE leading to permanent treatment discontinuation: Urinary tract infection (PT): 0 n (%)
TEAE leading to permanent treatment discontinuation: Urticaria (PT): 0 n (%)
TEAE leading to permanent treatment discontinuation: Vomiting (PT): 0 n (%)
TEAE: Gastrointestinal disorders [1]: 59 (12.6%) n (%)
TEAE: Infections and infestations [1]: 126 (27.0%) n (%)
TEAE: Musculoskeletal and connective tissue disorders [1]: 41 (8.8%) n (%)
TEAE: Nervous system disorders [1]: 30 (6.4%) n (%)
Serious TEAE: Blood and lymphatic system disorders (SOC): 1 (0.2%) n (%)
Serious TEAE: Cardiac disorders (SOC): 6 (1.3%) n (%)
Serious TEAE: Gastrointestinal disorders (SOC): 0 n (%)
Serious TEAE: General disorders and administration site conditions (SOC): 1 (0.2%) n (%)
Serious TEAE: Hepatobiliary disorders (SOC): 0 n (%)
Serious TEAE: Immune system disorders (SOC): 0 n (%)
Serious TEAE: Infections and infestations (SOC): 2 (0.4%) n (%)
Serious TEAE: Injury, poisoning and procedural complications (SOC): 1 (0.2%) n (%)
Serious TEAE: Investigations (SOC): 1 (0.2%) n (%)
Serious TEAE: Metabolism and nutrition disorders (SOC): 0 n (%)
Serious TEAE: Musculoskeletal and connective tissue disorders (SOC): 1 (0.2%) n (%)
Serious TEAE: Neoplasms benign, malignant and unspecified (incl cysts and polyps) (SOC): 4 (0.9%) n (%)
Serious TEAE: Nervous system disorders (SOC): 1 (0.2%) n (%)
Serious TEAE: Renal and urinary disorders (SOC): 2 (0.4%) n (%)
Serious TEAE: Reproductive system and breast disorders (SOC): 0 n (%)
Serious TEAE: Respiratory, thoracic and mediastinal disorders (SOC): 3 (0.6%) n (%)
Serious TEAE: Skin and subcutaneous tissue disorders (SOC): 0 n (%)
Serious TEAE: Vascular disorders (SOC): 1 (0.2%) n (%)
TEAE leading to death: Cardiac disorders (SOC): 2 (0.4%) n (%)
TEAE leading to death: General disorders and administration site conditions (SOC): 0 n (%)
TEAE leading to death: Neoplasms benign, malignant and unspecified (incl cysts and polyps) (SOC): 1 (0.2%) n (%)
TEAE leading to death: Respiratory, thoracic and mediastinal disorders (SOC): 1 (0.2%) n (%)
TEAE leading to permanent treatment discontinuation: Cardiac disorders (SOC): 3 (0.6%) n (%)
TEAE leading to permanent treatment discontinuation: Gastrointestinal disorders (SOC): 1 (0.2%) n (%)
TEAE leading to permanent treatment discontinuation: General disorders and administration site conditions (SOC): 1 (0.2%) n (%)
TEAE leading to permanent treatment discontinuation: Immune system disorders (SOC): 1 (0.2%) n (%)
TEAE leading to permanent treatment discontinuation: Infections and infestations (SOC): 1 (0.2%) n (%)
TEAE leading to permanent treatment discontinuation: Injury, poisoning and procedural complications (SOC): 1 (0.2%) n (%)
TEAE leading to permanent treatment discontinuation: Investigations (SOC): 1 (0.2%) n (%)
TEAE leading to permanent treatment discontinuation: Metabolism and nutrition disorders (SOC): 0 n (%)
TEAE leading to permanent treatment discontinuation: Musculoskeletal and connective tissue disorders (SOC): 0 n (%)
TEAE leading to permanent treatment discontinuation: Neoplasms benign, malignant and unspecified (incl cysts and polyps) (SOC): 1 (0.2%) n (%)
TEAE leading to permanent treatment discontinuation: Nervous system disorders (SOC): 1 (0.2%) n (%)
TEAE leading to permanent treatment discontinuation: Psychiatric disorders (SOC): 1 (0.2%) n (%)
TEAE leading to permanent treatment discontinuation: Respiratory, thoracic and mediastinal disorders (SOC): 2 (0.4%) n (%)
TEAE leading to permanent treatment discontinuation: Skin and subcutaneous tissue disorders (SOC): 1 (0.2%) n (%)
Patients with any TEAE: 227 (48.6%) n (%)
Patients with any TEAE leading to death: 3 (0.6%) n (%)
Patients with any TEAE leading to permanent treatment discontinuation: 9 (1.9%) n (%)
Patients with any serious TEAE: 19 (4.1%) n (%)
